Patent US10919943B2, “Mutant proteins enabling agrochemical control of plant gene expression” (The Regents of the University of California, priority 2016, dated 2021)
Substitutions are numbered along the chain they refer to. Names and notes keep the numbering of the source.

B1: R116Y: PYR1 mutant (protein, UniProt O49686 1-191, looked up, variant R116Y)
Abscisic acid receptor PYR1: MPSELTPEERSELKNSIAEFHTYQLDPGSCSSLHAQRIHAPPELVWSIVRRFDKPQTYKHFIKSCSVEQNFEMRVGCTRDVIVISGLPANTSTERLDILDDERRVTGFSIIGGEHYLTNYKSVTTVHRFEKENRIWTVVLESYVVDMPEGNSEDDTRMFADTVVKLNLQKLATVAEAMARNSGDGSGSQVT
B2: P148Q: PYR1 mutant (protein, UniProt O49686 1-191, looked up, variant P148Q)
Abscisic acid receptor PYR1: B1 Abscisic acid receptor PYR1 with Y116R, P148Q
B3: P148Y: PYR1 mutant (protein, UniProt O49686 1-191, looked up, variant P148Y)
Abscisic acid receptor PYR1: B1 Abscisic acid receptor PYR1 with Y116R, P148Y
B4: L117S: PYR1 mutant (protein, UniProt O49686 1-191, looked up, variant L117S)
Abscisic acid receptor PYR1: B1 Abscisic acid receptor PYR1 with Y116R, L117S
B5: R116G: PYR1 mutant (protein, UniProt O49686 1-191, looked up, variant R116G)
Abscisic acid receptor PYR1: B1 Abscisic acid receptor PYR1 with Y116G
B6: G150I: PYR1 mutant (protein, UniProt O49686 1-191, looked up, variant G150I)
Abscisic acid receptor PYR1: B1 Abscisic acid receptor PYR1 with Y116R, G150I
B7: P148G: PYR1 mutant (protein, UniProt O49686 1-191, looked up, variant P148G)
Abscisic acid receptor PYR1: B1 Abscisic acid receptor PYR1 with Y116R, P148G
B8: R116I: PYR1 mutant (protein, UniProt O49686 1-191, looked up, variant R116I)
Abscisic acid receptor PYR1: B1 Abscisic acid receptor PYR1 with Y116I
B9: P148T: PYR1 mutant (protein, UniProt O49686 1-191, looked up, variant P148T)
Abscisic acid receptor PYR1: B1 Abscisic acid receptor PYR1 with Y116R, P148T
B10: L117H: PYR1 mutant (protein, UniProt O49686 1-191, looked up, variant L117H)
Abscisic acid receptor PYR1: B1 Abscisic acid receptor PYR1 with Y116R, L117H
B11: L117P: PYR1 mutant (protein, UniProt O49686 1-191, looked up, variant L117P)
Abscisic acid receptor PYR1: B1 Abscisic acid receptor PYR1 with Y116R, L117P
B12: L117V: PYR1 mutant (protein, UniProt O49686 1-191, looked up, variant L117V)
Abscisic acid receptor PYR1: B1 Abscisic acid receptor PYR1 with Y116R, L117V
B13: P148I: PYR1 mutant (protein, UniProt O49686 1-191, looked up, variant P148I)
Abscisic acid receptor PYR1: B1 Abscisic acid receptor PYR1 with Y116R, P148I
B14: R116F: PYR1 mutant (protein, UniProt O49686 1-191, looked up, variant R116F)
Abscisic acid receptor PYR1: B1 Abscisic acid receptor PYR1 with Y116F
B15: P148S: PYR1 mutant (protein, UniProt O49686 1-191, looked up, variant P148S)
Abscisic acid receptor PYR1: B1 Abscisic acid receptor PYR1 with Y116R, P148S
B16: L117A: PYR1 mutant (protein, UniProt O49686 1-191, looked up, variant L117A)
Abscisic acid receptor PYR1: B1 Abscisic acid receptor PYR1 with Y116R, L117A
B17: P148K: PYR1 mutant (protein, UniProt O49686 1-191, looked up, variant P148K)
Abscisic acid receptor PYR1: B1 Abscisic acid receptor PYR1 with Y116R, P148K
B18: P148F: PYR1 mutant (protein, UniProt O49686 1-191, looked up, variant P148F)
Abscisic acid receptor PYR1: B1 Abscisic acid receptor PYR1 with Y116R, P148F
B19: L117T: PYR1 mutant (protein, UniProt O49686 1-191, looked up, variant L117T)
Abscisic acid receptor PYR1: B1 Abscisic acid receptor PYR1 with Y116R, L117T
B20: R116D: PYR1 mutant (protein, UniProt O49686 1-191, looked up, variant R116D)
Abscisic acid receptor PYR1: B1 Abscisic acid receptor PYR1 with Y116D
B21: G150W: PYR1 mutant (protein, UniProt O49686 1-191, looked up, variant G150W)
Abscisic acid receptor PYR1: B1 Abscisic acid receptor PYR1 with Y116R, G150W
B22: L117K: PYR1 mutant (protein, UniProt O49686 1-191, looked up, variant L117K)
Abscisic acid receptor PYR1: B1 Abscisic acid receptor PYR1 with Y116R, L117K
B23: P148C: PYR1 mutant (protein, UniProt O49686 1-191, looked up, variant P148C)
Abscisic acid receptor PYR1: B1 Abscisic acid receptor PYR1 with Y116R, P148C
B24: L117Y: PYR1 mutant (protein, UniProt O49686 1-191, looked up, variant L117Y)
Abscisic acid receptor PYR1: B1 Abscisic acid receptor PYR1 with Y116R, L117Y
B25: G150V: PYR1 mutant (protein, UniProt O49686 1-191, looked up, variant G150V)
Abscisic acid receptor PYR1: B1 Abscisic acid receptor PYR1 with Y116R, G150V
B26: L117N: PYR1 mutant (protein, UniProt O49686 1-191, looked up, variant L117N)
Abscisic acid receptor PYR1: B1 Abscisic acid receptor PYR1 with Y116R, L117N
B27: P148N: PYR1 mutant (protein, UniProt O49686 1-191, looked up, variant P148N)
Abscisic acid receptor PYR1: B1 Abscisic acid receptor PYR1 with Y116R, P148N
B28: P148M: PYR1 mutant (protein, UniProt O49686 1-191, looked up, variant P148M)
Abscisic acid receptor PYR1: B1 Abscisic acid receptor PYR1 with Y116R, P148M
B29: N151L: PYR1 mutant (protein, UniProt O49686 1-191, looked up, variant N151L)
Abscisic acid receptor PYR1: B1 Abscisic acid receptor PYR1 with Y116R, N151L
B30: P148L: PYR1 mutant (protein, UniProt O49686 1-191, looked up, variant P148L)
Abscisic acid receptor PYR1: B1 Abscisic acid receptor PYR1 with Y116R, P148L
B31: P148E: PYR1 mutant (protein, UniProt O49686 1-191, looked up, variant P148E)
Abscisic acid receptor PYR1: B1 Abscisic acid receptor PYR1 with Y116R, P148E
B32: P148V: PYR1 mutant (protein, UniProt O49686 1-191, looked up, variant P148V)
Abscisic acid receptor PYR1: B1 Abscisic acid receptor PYR1 with Y116R, P148V
B33: L117R: PYR1 mutant (protein, UniProt O49686 1-191, looked up, variant L117R)
Abscisic acid receptor PYR1: B1 Abscisic acid receptor PYR1 with Y116R, L117R
B34: P148D: PYR1 mutant (protein, UniProt O49686 1-191, looked up, variant P148D)
Abscisic acid receptor PYR1: B1 Abscisic acid receptor PYR1 with Y116R, P148D
B35: N151M: PYR1 mutant (protein, UniProt O49686 1-191, looked up, variant N151M)
Abscisic acid receptor PYR1: B1 Abscisic acid receptor PYR1 with Y116R, N151M
B36: L117W: PYR1 mutant (protein, UniProt O49686 1-191, looked up, variant L117W)
Abscisic acid receptor PYR1: B1 Abscisic acid receptor PYR1 with Y116R, L117W
B37: L117E: PYR1 mutant (protein, UniProt O49686 1-191, looked up, variant L117E)
Abscisic acid receptor PYR1: B1 Abscisic acid receptor PYR1 with Y116R, L117E
B38: L117D: PYR1 mutant (protein, UniProt O49686 1-191, looked up, variant L117D)
Abscisic acid receptor PYR1: B1 Abscisic acid receptor PYR1 with Y116R, L117D
B39: P148W: PYR1 mutant (protein, UniProt O49686 1-191, looked up, variant P148W)
Abscisic acid receptor PYR1: B1 Abscisic acid receptor PYR1 with Y116R, P148W
B40: L117Q: PYR1 mutant (protein, UniProt O49686 1-191, looked up, variant L117Q)
Abscisic acid receptor PYR1: B1 Abscisic acid receptor PYR1 with Y116R, L117Q
B41: P148H: PYR1 mutant (protein, UniProt O49686 1-191, looked up, variant P148H)
Abscisic acid receptor PYR1: B1 Abscisic acid receptor PYR1 with Y116R, P148H
B42: L117G: PYR1 mutant (protein, UniProt O49686 1-191, looked up, variant L117G)
Abscisic acid receptor PYR1: B1 Abscisic acid receptor PYR1 with Y116R, L117G
B43: R116E: PYR1 mutant (protein, UniProt O49686 1-191, looked up, variant R116E)
Abscisic acid receptor PYR1: B1 Abscisic acid receptor PYR1 with Y116E
B44: R116H: PYR1 mutant (protein, UniProt O49686 1-191, looked up, variant R116H)
Abscisic acid receptor PYR1: B1 Abscisic acid receptor PYR1 with Y116H
B45: P148R: PYR1 mutant (protein, UniProt O49686 1-191, looked up, variant P148R)
Abscisic acid receptor PYR1: B1 Abscisic acid receptor PYR1 with Y116R, P148R

Test system: HAB1
Assay: Yeast two hybrid of pBD-PYR1 site saturation mutants with pACT-HAB1 on 10 μM ABA, β-galactosidase staining
Format: cell-based, Arabidopsis
Design: key: x: Mutations in PYR1 that disrupt ABA-induced binding to PYR1 to HAB1
Conditions: S. cerevisiae Y190, 10 μM ABA; dead = lack of visible staining in comparison to wild type control
Outline: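 Binding was read by β-galactosidase staining of chloroform-lysed colonies after 2 days at 30° C on SD (-Leu, -Trp) plates containing 10 μM (+)-ABA. Yeast strain Y190 carried the BD-PYR1 single-substitution mutants plus the AD-HAB1 fusion. Absence of staining versus the wild-type control defined "dead" mutants.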

Molecule	Mutations in PYR1 that disrupt ABA-induced binding to PYR1 to HAB1
B1	x
B2	x
B3	x
B4	x
B5	x
B6	x
B7	x
B8	x
B9	x
B10	x
B11	x
B12	x
B13	x
B14	x
B15	x
B16	x
B17	x
B18	x
B19	x
B20	x
B21	x
B22	x
B23	x

Molecule	Mutations in PYR1 that disrupt ABA-induced binding to PYR1 to HAB1
B24	x
B25	x
B26	x
B27	x
B28	x
B29	x
B30	x
B31	x
B32	x
B33	x
B34	x
B35	x
B36	x
B37	x
B38	x
B39	x
B40	x
B41	x
B42	x
B43	x
B44	x
B45	x
